10 substances from paper PMC9506717 can be followed below.

The conditions of the data set: glycan lost.
Consider Spike: N61/603/657 triple mutant, for which the “other: Spike incorporation into virions” value is given as “decreases”.

Take Spike: N61/603/657Q: the expression_or_secretion result is recorded as “no change” and the “other: Spike incorporation into virions” value is reported as “decreases”.

On to Spike: N61/657Q, for which the expression_or_secretion entry was “no change” and the “other: Spike incorporation into virions” value was “decreases”.

Take Spike: N61Q: the expression_or_secretion entry is “no change” and the “other: Spike incorporation into virions” value is given as “decreases”.

Consider Spike: N61Q/N657Q, for which the “other: Spike incorporation into virions” value is “decreases”.

With Spike: N603/657Q, the expression_or_secretion entry was “no change”.

On to Spike: N603Q, for which the expression_or_secretion entry is recorded as “no change”.

On to Spike: N616Q, for which the expression_or_secretion entry is “no change” and the “other: viral entry” value is on record as “decreases”.

Consider Spike: N657Q, for which the expression_or_secretion result was “no change”.

Regarding Spike: N801Q, the expression_or_secretion entry is recorded as “no change” and the “other: Spike incorporation into virions” value was “decreases”.
